Experimental data taken from US20130023483A1.
Square brackets hold non-standard residues; d marks the D form. Oic = O=C(O)[C@@H]1C[C@@H]2CCCC[C@@H]2N1; 1Nal = N[C@@H](Cc1cccc2ccccc12)C(=O)O; 2Nal = N[C@@H](Cc1ccc2ccccc2c1)C(=O)O; d1Nal = N[C@H](Cc1cccc2ccccc12)C(=O)O; Tic = O=C(O)[C@@H]1Cc2ccccc2CN1; dTic = O=C(O)[C@H]1Cc2ccccc2CN1; dOrn = NCCC[C@@H](N)C(=O)O; Orn = NCCC[C@H](N)C(=O)O; Dab = NCC[C@H](N)C(=O)O; Abu = CC[C@H](N)C(=O)O

Molecular target: chemokine receptor CXCR7 (RDC1) (UniProt P25106)
Sequence (P25106 whole entry): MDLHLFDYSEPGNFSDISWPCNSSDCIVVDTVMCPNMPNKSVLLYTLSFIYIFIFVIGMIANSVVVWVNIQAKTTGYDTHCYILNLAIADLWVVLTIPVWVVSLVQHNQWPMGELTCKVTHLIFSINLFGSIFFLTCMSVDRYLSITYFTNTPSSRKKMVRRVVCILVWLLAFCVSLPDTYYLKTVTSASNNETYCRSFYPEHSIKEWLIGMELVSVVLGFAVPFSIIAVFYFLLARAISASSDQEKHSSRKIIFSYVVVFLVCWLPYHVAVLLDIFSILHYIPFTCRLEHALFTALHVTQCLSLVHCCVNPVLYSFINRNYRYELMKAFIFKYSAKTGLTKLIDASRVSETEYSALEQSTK
Assay: cell-based or functional assay

| Substance | β-Arrestin EC50 [nM] |
| --- | --- |
| cyclo(W[dF]W[Dab][dP][Tic]) | 12.6 |
| cyclo(-1Nal-^DHis-Tyr-Arg-^DPro-Azt-) (peptide) | 44.4 |
| cyclo(-1Nal-^DArg-Ile-Arg-^DPro-Azt-) (peptide) | 41.2 |
| cyclo(W[dF]WK[dP][Tic]) | 16.5 |
| cyclo(-Trp-^DPhe-Trp-Arg-^DPip-Pro-) (peptide) | 78.7 |
| cyclo(I[dR]IR[dP][Tic]) | 34.3 |
| cyclo([1Nal][dR]WR[dP][Tic]) | 280 |
| cyclo(W[dF][2Nal]R[dP][Tic]) | 16.9 |
| cyclo(H[dF]WR[dP][Tic]) | 32.1 |
| cyclo(W[dW]WR[dP][Tic]) | 64.9 |
| cyclo(R[dW]HR[dP][Tic]) | 234 |
| cyclo(-Trp-^DPhe-Trp-Arg-^DPro-Tiq-) (peptide) | 0.4 |
| cyclo(W[dF]WR[dTic]P) | 83.6 |
| cyclo(H[d1Nal]HW[dP][Tic]) | 269 |
| cyclo([2Nal][dF]WR[dP][Tic]) | 8.9 |
| cyclo(-1Nal-^DHis-Ile-Arg-^DPro-Azt-) (peptide) | 85.7 |
| cyclo(W[dR]HR[dP][Tic]) | 348 |
| cyclo(R[dH]WR[dP][Tic]) | 144 |
| cyclo(-Trp-^DThr-Tyr-Arg-^DPro-Azt-) (peptide) | 148 |
| cyclo(W[dF]YR[dP][Tic]) | 326 |
| cyclo(-Trp-^DArg-Ile-Arg-^DPro-Azt-) (peptide) | 47.7 |
| cyclo(-Trp-^DArg-Trp-Arg-^DPro-Azt-) (peptide) | 170 |
| cyclo(I[dH]WR[dP][Tic]) | 70.8 |
| cyclo(H[dW]HR[dP][Tic]) | 226 |
| cyclo(W[dOrn]WR[dP][Tic]) | 111 |
| cyclo(F[dF]WR[dP][Tic]) | 22.5 |

Other lines, results leading:

| β-Arrestin EC50 [nM] | Substance |
| --- | --- |
| 63.4 | cyclo(W[dI]WR[dP][Tic]) |
| 18.3 | cyclo(W[dF]WH[dP][Tic]) |
| 148 | cyclo(W[dF]IR[dP][Tic]) |
| 61.6 | cyclo([1Nal][dF]WR[dP][Tic]) |
| 317 | cyclo(I[dW]HR[dP][Tic]) |
| 128 | cyclo(W[dR]WR[dP][Tic]) |
| 12.1 | cyclo(W[dF]W[Orn][dP][Tic]) |
| 1.7 | cyclo(-Trp-^DPhe-Trp-Arg-^DPro-(4S)-Hyp(Bn)-) (peptide) |
| 178 | cyclo(W[dF]RR[dP][Tic]) |
| 347 | cyclo([1Nal][dH]IR[dP][Tic]) |
| 4.8 | cyclo(W[dF]WR[dP][Tic]) |
| 94.5 | cyclo(W[dF]WY[dP][Tic]) |
| 12.8 | cyclo(R[dF]WR[dP][Tic]) |
| 204 | cyclo(W[dH]WR[dP][Tic]) |
| 217 | cyclo(W[dR]HW[dP][Tic]) |
| 146 | cyclo(-1Nal-^DArg-Trp-Arg-^DPro-Azt-) (peptide) |
| 75.7 | cyclo(W[dF]FR[dP][Tic]) |
| 97.5 | cyclo([Abu][dR]RW[dP][Tic]) |
| 344 | cyclo(-Trp-^DHis-Ile-Arg-^DPro-Azt-) (peptide) |
| 11.5 | cyclo(Y[dF]WR[dP][Tic]) |
| 163 | cyclo(A[dF]WR[dP][Tic]) |
| 208 | cyclo(-Trp-^DArg-Trp-Ile-^DPro-Azt-) (peptide) |
| 32.5 | cyclo(-His(Me)-^DPhe-Trp-Arg-^DPro-Tic-) (peptide) |
| 342 | cyclo(-Trp-^DHis-Trp-Arg-^DPro-Azt-) (peptide) |
| 0.8 | cyclo(W[dF]WR[dP][Oic]) |
